Source: patent US9206246B2, “Heparin/heparan sulfate-dependent inhibitors of activated protein C and uses thereof in treating hemophilic disorders” (Academia Sinica, priority 2012, dated 2015)
Several values for one entry are separate records, joined by “and”; a condition that tells them apart may be missing. Identical values can stand only once. Entries after “also recorded” stand apart in the source; their conditions may differ.

Tests used:
[1] = target: T1, human activated protein C (Homo sapiens, UniProt P04070); test: Inhibition of APC amidolytic activity (Spectrozyme PCa chromogenic substrate); type: biochemical; settings: for enhancement of APC inhibition by heparan sulfate chain: 10 μg/ml, APC and DrKIn-I 20 nM each; for Hill slope of dose-response curve / IC50: APC 10 nM
T1 construct: purchased Haematologic Technologies
Protocol: (§1) B: Dose-response curves of APC (10 nM) inhibition by DrKIn-I in the absence (◯) and presence (●) of 0.1 U/ml heparin. C: To determine the minimum concentration of heparin required for the potentiation APC inhibition, the activity of APC (20 nM) was measured after the addition of DrKIn-I (20 nM) and varying concentrations of heparin (0-1000 mU/ml). D: To assess the ability of heparan sulfate and the minimum length of heparan sulfate required to potentiate DrKIn-I-mediated APC inhibition, the amidolytic activity of APC was determined in the presence of DrKIn-I (20 nM) and different lengths of heparan sulfate chains (10 μg/ml each). E, Time course of FVa inactivation by APC (1 nM) was assessed in the absence (●) or presence (▪) of 5 nM DrKIn-I, or in the presence of 5 nM DrKIn-I supplemented with 0.1 U/ml heparin (▴), as described in “Materials and methods”. F, The effect of DrKIn-I (0-250 nM) and/or heparin (0.1 U/ml) on APC-mediated FVa inactivation was determined after 10 minutes of incubation at 37° C. with APC (5 nM). Results shown are means±SD of three experiments.
All inhibition assays were performed in 96-wells microtiter plates in 25 mM Tris-HCl (pH 7.4), 150 mM NaCl, 2.5 mM CaCl2 and 5 mg/ml BSA. For comparison between DrKIn-I and DrKIn-II, the amidolytic activity of 10 nM APC, with or without 0.1 U/ml heparin, was assayed in the presence or absence of equal molar concentrations of DrKIn-I or DrKIn-II. Immediately after the addition of APC, Spectrozyme PCa was added and the rates of p-nitroaniline release were monitored at 405 nm for 10 minutes at 37° C. For dose response curves, APC was mixed with different concentrations of DrKIn-I in the presence or absence of heparin. The final concentrations were as follows: APC (10 nM), heparin (0.1 U/ml) and DrKIn-I (0-100 nM in the presence of heparin and 0-12800 nM in the absence of heparin). Dose-response curves were fitted using GraphPad Prism (GraphPad Software). In other inhibition experiments, varying concentrations of heparin ([…]) or different lengths of heparan sulfate chains (10 μg/ml) were added to equimolar concentrations of APC and DrKIn-I (20 nM each). In all the inhibition experiments, Spectrozyme PCa was added to a final concentration of 0.2 mM. Changes in absorbance were measured using SpectraMax M2^e Microplate Reader (Molecular Devices).

APC [2] = target: T2, APC (Homo sapiens, UniProt P04070); test: Surface plasmon resonance, immobilized APC; type: binding; set-up: purchased Haematologic Technologies; settings: no heparin
Protocol: A: 70 μg of DrKIn-I in 0.1 ml equilibrating buffer (20 mM Tris-HCl, pH 8.0) was applied to a 5 ml HiTrap Heparin column and eluted with a 50 ml gradient from 0.0-1.0 M NaCl. […] The thin lines represent the global fit to the response data. […] Results shown are means±SD of three experiments. Representative binding traces are shown.
Biacore T200 (GE Healthcare) was used for analysis. APC or PC dissolved in 10 mM acetate buffer (pH 5.0) was immobilized on a CM5 sensor chip to a response unit (RU) of 1000 with an amine coupling kit. Associations and dissociations of DrKIn-I were performed in 10 mM HEPES (N-2-hydroxyethylpiperazine-N′-2-ethanesulfonic acid; pH 7.4), 150 mM NaCl, 3 mM EDTA (ethylenediaminetetraacetic acid) and 0.05% P20 with a flow rate of 60 μl/min. […] Binding kinetics were determined by global fitting to 1:1 Langmuir binding model using the Biaevaluation software (GE Healthcare).

plasmin = test: Euglobulin clot lysis assay; type: biochemical
APC [3] = target: T2, APC; test: APC-mediated FVa inactivation assay (residual FVa activity, prothrombin time-based); type: biochemical; set-up: purchased Haematologic Technologies
Protocol: as §1
In assays involving FVa, 20 nM purified FVa was incubated at 37° C. with a mixture containing 1 nM or 5 nM APC, 20 nM protein S, 20 μM DOPC/DOPS (75:25) and 5-250 nM DrKIn-I in the presence or absence of 0.1 U/ml heparin. At specific time intervals, 5 μl aliquots were removed and mixed with 50 μl of FV-deficient plasma. The residual FVa activities were quantified in a standard prothrombin time-based assay using a calibration curved obtained by adding variable amounts of FVa to FV-deficient plasma. All concentrations given were final concentrations.

[4] = in the presence of 0.1 U/ml heparin

T1 sequence (P04070 212-450 limits assumed): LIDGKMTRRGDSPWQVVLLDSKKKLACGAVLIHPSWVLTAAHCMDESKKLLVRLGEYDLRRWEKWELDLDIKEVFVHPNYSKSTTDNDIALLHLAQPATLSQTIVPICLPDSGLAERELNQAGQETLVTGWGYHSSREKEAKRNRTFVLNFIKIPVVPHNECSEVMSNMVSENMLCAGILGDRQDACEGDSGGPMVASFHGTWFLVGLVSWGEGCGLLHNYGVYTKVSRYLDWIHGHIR
T1 sequence (P04070 43-197 limits assumed): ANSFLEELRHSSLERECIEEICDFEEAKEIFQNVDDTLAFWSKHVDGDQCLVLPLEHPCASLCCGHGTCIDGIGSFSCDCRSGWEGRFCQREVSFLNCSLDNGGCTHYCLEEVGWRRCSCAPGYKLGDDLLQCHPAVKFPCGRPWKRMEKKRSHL
T2 sequence (P04070 212-450 limits assumed): as the sequence (P04070 212-450 limits assumed) above
T2 sequence (P04070 43-197 limits assumed): as the sequence (P04070 43-197 limits assumed) above

In the case of DrKIn-I (CGGNDNNFETRKKCRQTCGAPRKGRPT), the “inhibitory activity against APC in the absence of heparin” value ([1]; 10 nM inhibitor, 10 nM APC, no heparin) is reported as “little inhibitory activity against APC”, the “potentiation of APC inhibition by heparin” value ([1]; 0.01 U/ml heparin, APC 20 nM, DrKIn-I 20 nM) is reported as “more than 70%” and the APC activity ([1]; 0.1 U/ml heparin, APC 20 nM, DrKIn-I 20 nM) is reported as “no APC activity was detectable”. For the same substance, the “decrease of APC activity (inhibition of APC amidolytic activity)” value ([1]; equimolar inhibitor and APC (10 nM each), 0.1 U/ml heparin, Spectrozyme PCa 0.2 mM) was 100%, the “enhancement of APC inhibition by heparan sulfate chain” value ([1]; heparan sulfate of 2 disaccharide units) was roughly 25% and the “enhancement of APC inhibition by heparan sulfate chain” value ([1]; heparan sulfate of one disaccharide unit) was roughly 10%. For the same substance, the “Hill slope of dose-response curve” value ([1]; in the absence of heparin) was −0.85±0.02, the IC50 ([1]; in the absence of heparin) was 88.9 ± 1 nM and the “Hill slope of dose-response curve” value [1, 4] was −3.64±0.30. The IC50 [1, 4] was 3.5 ± 0.2 nM, the “reduction of IC50 by heparin” value ([1]; with vs without heparin) was 25 fold and the association rate constant (APC [2]; 1:1 Langmuir model) was 1.3±0.8×10^7 M^−1 s^−1 and ~1.3×10^7 M^−1 s^−1 and 1.7×10^7 M^−1 s^−1. The dissociation rate constant (APC [2]; 1:1 Langmuir model) was 3.4±2.2×10^−2 s^−1, the Kd (APC [2]; 25° C.) was roughly 2.6 nM and the “prolongation of euglobulin clot lysis time” value (plasmin; 20 nM inhibitor) was “failed to prolong the clot lysis time”. The “prolongation of euglobulin clot lysis time” value (plasmin; 100 nM inhibitor) was “approximately an hour”, the “FVa protected from inactivation” value (APC [3]; 5 nM DrKIn-I with 0.1 U/ml heparin, APC 1 nM, FVa 20 nM) was 100% and the “FVa protected from inactivation” value (APC [3]; 250 nM DrKIn-I (50-fold molar excess) without heparin, APC 5 nM, 10 minutes) was “less than 20%”. For the same substance, the “effect on APC-mediated FVa degradation” value (APC [3]; without heparin (5 nM DrKIn-I, APC 1 nM, FVa 20 nM)) was “relatively no effect on APC activity; also recorded: negligible”.
